One may read the Km as the concentration of substrate that gives half-maximal velocity. The stoichiometry N is the number of molecules, sites or subunits per partner or assembly.

Sequences and labels used below:
B1: Methanosarcina barkeri trimethylamine corrinoid protein MttC (natural protein, UniProt O93659 1-217, looked up)
chain: MANKEEIIAKAKEAITDFDDELAEEVANEALAAGIDPVELIEKGFTAGMEEVGEKFGQGELFLPHVLAAAEAMNSGIKVITPEMEKRKSQTKSLGTVAIGTIEGDIHSIGKDIVASMLNIAGFKVVDLGRDVPINTFVEKVKELKPQVVASSALMTTTMVNQIQIEEQLKEAGVRDQVKTMVGGAPVTQDWADKIGADIYGESANDAVAKVKAALNV
notes: Trimethylamine corrinoid protein MttC of M. barkeri; mttC gene cloned by a strategy similar to that for mttB1; helical cap domain residues 2-84, connecting loop 85-95, core domain 96-216; No step that removes the tag is described; also called MttC-His6; cognate corrinoid protein; source: Methanosarcina acetivorans C2A transformed with plasmid pTC311, purified (HiTrap HP column, Mono-Q HR 10/10)
B2: MttB (Methanosarcina barkeri; C-TERMINAL/CHANGE/GGHHHHHH/IS/NO/TAG) (protein)
chain: MAKNNAVAGFNALNGVELNLFTTDELKAIHYATMEVLMDPGIQVSDPEARQIFKENGCEVNEKTNVVKIPEYLVRKALQLAPSRFVLWGRDKKFNTVQECGGKVHWTCFGTGVKVCKYQDGKYVTVDSVEKDIADIAKLCDWAENIDYFSLPVSARDIAGQGAQDVHETLTPLANTAKHFHHIDPVGENVEYYRDIVKAYYGGDEEEARKKPIFSMLLCPTSPLELSVNACQVIIKGARFGIPVNVLSMAMSGGSSPVYLAGTLVTHNAEVLSGIVLAQLTVPGAKVWYGSSTTTFDLKKGTAPVGSPELGLISAAVAKLAQFYGLPSYVAGSOSDAKVPDDQAGHEKTMTTLLPALAGANTIYGAGMLELGMTFSMEQLVIDNDIFSMVKKAMQGIPVSEETLAVESIQKVGIGNNFLALKQTRQLVDYPSNPMLLDRHMFGDWAAAGSKDLATVAHEKVEDVLKNHQVTPIDADIFKDMQAIVDKADKAFRGM
notes: full length with C-terminal GGHHHHHH tag, contains pyrrolysine at 334 (amber codon); expressed in Methanosarcina acetivorans C2A; D3 homohexamer (trimer of dimers)
B3: MttB (Methanosarcina barkeri; Y364F) (protein)
chain: B2 chain with Y364F
notes: as for B2
B4: Methanosarcina barkeri trimethylamine methyltransferase MttB (enzyme, Methanosarcina barkeri MS, UniProt O93658 1-495, looked up)
chain: B2 chain
modifications: pyrrolysine at 334 (Pyl334)
notes: Trimethylamine methyltransferase MttB, product of the mttB1 gene amplified from M. barkeri MS genomic DNA; the in-frame amber codon is read as pyrrolysine (Pyl334); residues 2-495 are described in the structure; D3-symmetric homo-hexamer (trimer of dimers) in the crystals; No step that removes the tag is described; The PDB ids are printed in two ways (7XCL/7XCM in the methods, 7LCL/7LCM in the …)

Numbering of substitutions follows the chain as printed. In names and notes the source's numbering stands.

One data set addresses T1, MttB (Methanosarcina barkeri, UniProt O93658).
T1 construct: full length with C-terminal GGHHHHHH tag, contains pyrrolysine at 334 (amber codon); expressed in Methanosarcina acetivorans C2A; D3 homohexamer (trimer of dimers)
Kind of data set: X-ray crystal structure, […] Å. It counts as binding. The settings on record: covalent; adduct on imine carbon of Pyl334; crystal soaked with saturated sodium dithionite, pH 4.5.

For data set [1], the target named is B4. In words: crystal structure; MttB-MttC complex; hanging drops at 10 °C of MttB (3 mg/mL) and MttC (10 mg/mL) mixed with 18% PEG8000, 0.1 M citric acid pH 5, 1 M LiCl; crystals soaked with 12.5 mM N,N-dimethyl-hydroxylamine; 2.7 Å, space group P21. The settings on record: both partners purified.
Substrate in the data set “purified protein”: CN(C)C
In words: purified protein. Type of data set: biochemical, Methanosarcina barkeri. To be noted: 30 µM Co(I)-MttC as methyl acceptor, RamA, 2 mM Ti(III)-citrate, 2.5 mM ATP, 2.5 mM MgCl2, phosphate pH 7.2, 37 °C, anaerobic.

Data set [2] deals with the molecule itself. In words: crystal structure; MttB alone; vapor diffusion at 10 °C; 8 mg/mL MttB in 20 mM potassium phosphate pH 7.4, 500 mM NaCl, 240 mM imidazole, 20% glycerol; reservoir 4% MPD, 0.1 M citric acid pH 4.5; 2.5 Å.

`O=S(O)O` [sulfite]: the “X-ray crystal structure, 3.2 Å” value at MttB is “addition of sulfite to the pyrrolysine imine carbon of MttB was observed”.

Take B1: in data set [1], the binding result is on record as “binds”. As to B2, in the data set “purified protein”, the Km came out at 49 ± 6 µM and the kcat is 48 ± 2 turnovers per min. Regarding B3, in “purified protein”, the Km is given as 75 ± 11 µM and the kcat is given as 1.7 ± 0.1 turnovers per min. For B4, the “stoichiometry N” value in data set [2] was 6.

The values above are taken from article PMC9842639, “Insights into pyrrolysine function from structures of a trimethylamine methyltransferase and its corrinoid protein complex” (Communications Biology, 2023).
